This is an account of results in patent US10234460B2, “Macrocyclic peptide, method for producing same, and screening method using macrocyclic peptide library” (The University of Tokyo, priority 2013, dated 2019).

In one test the test system is HeLa cells. The test is described as follows: Intracellular introduction of fluorescently labeled peptides into living HeLa cells, confocal microscope. It is filed as cell-based. The conditions noted are these: 37° C., 60 minutes. Here is the method:
HeLa cells proliferated on a 90-mm plate until they reached sub-confluence and Trypsin/EDTA were treated at 37° C. for […] to release the cells from the plate. A culture dish (Iwaki) having a 35-mm glass bottom was seeded with 1×10^4 cells. […] The latter ones were used for confirming cell integrity. The intracellular distribution of the fluorescently labeled peptide was analyzed using a Leica TCS SP2 microscope equipped with an N PLAN 40× objective lens, without washing and immobilization. The HeLa cells were incubated with the fluorescently labeled peptides, at 37° C. for 60 minutes. […], they were observed under a confocal fluorescence microscope. All the assays were performed using a small dish with a glass bottom so that not a sample having the cells mounted thereon but a sample in a buffer was observed. DRAQ7 (3 μM) is a far-red fluorescent dye and it dyes only the nuclei of permeable dead cells. When the peptides are incubated, this DRAQ7 is added to find whether the cells are alive or not.

The target in a further test is T1, PAD4 (Homo sapiens, UniProt Q9UM07).
T1 construct: purchased Modiquest Research MQ 16.206-10
The test is described as follows: In vitro PAD4 inhibition assay, colorimetric analysis with COLDER solution, substrate BAEE. Particulars: peptide 0 μM to 50 μM, PAD4 0.2 μM, BAEE 10 mM; for PAD4 inhibition, dose dependence / PAD4 inhibitory activity compared with the existing PAD4 inhibitor: initial data. It is filed as biochemical. As for the experimental part:
Human PAD4 was purchased from Modiquest Research (catalog no. MQ 16.206-10). Human PAD4 is a protein having NCBI accession no. CCDS180.1, a molecular weight of 74.08 kDa, and 663 amino acids.
PAD4 inhibition assay was performed using various concentrations of VB peptides in a reaction buffer containing 100 mM HEPES (pH 7.6) and 50 mM NaCl.
Before reaction was initiated by adding BAEE (final concentration: 10 mM), the above reaction mixture was incubated with PAD4 (0.2 μM) (in the presence of 5 mM CaCl2) at 37° C. for 15 minutes. After reaction for 30 minutes, the reaction was terminated by flash freezing in liquid nitrogen. For color development, 200 μL of a freshly prepared COLDER solution (2.25 M H3PO4, 4.5 M H2SO4, 1.5 mM NH4Fe(SO4), 20 mM diacetyl monoxime, and 1.5 mM thiosemicarbazide) was added to each of the reaction terminated solutions. The resulting mixture was vortexed to ensure complete mixing and then, incubated at 95° C. for 30 minutes (Firestein, G. S., 2003, Nature, 423(6937), 356-61; Jones, J. E., et al., ACS chemical biology, 7(1), 160-5). The absorbance at 540 nm was measured. Compared with a standard curve of Cit, the concentration of Cit produced during the reaction was determined.

Bridge positions count the residues as written; N and C are the ends. Square brackets hold non-standard residues; d marks the D form. Ends that are not written are not given here. * marks the point of attachment. chloroacetamidine = chloroacetamidine warhead on ornithine δ-NH2, N=C(CCl)*; Ahp(2) = CCCCC[C@H](N)C(=O)O; Orn = NCCC[C@H](N)C(=O)O

T1 sequence (Q9UM07 whole entry): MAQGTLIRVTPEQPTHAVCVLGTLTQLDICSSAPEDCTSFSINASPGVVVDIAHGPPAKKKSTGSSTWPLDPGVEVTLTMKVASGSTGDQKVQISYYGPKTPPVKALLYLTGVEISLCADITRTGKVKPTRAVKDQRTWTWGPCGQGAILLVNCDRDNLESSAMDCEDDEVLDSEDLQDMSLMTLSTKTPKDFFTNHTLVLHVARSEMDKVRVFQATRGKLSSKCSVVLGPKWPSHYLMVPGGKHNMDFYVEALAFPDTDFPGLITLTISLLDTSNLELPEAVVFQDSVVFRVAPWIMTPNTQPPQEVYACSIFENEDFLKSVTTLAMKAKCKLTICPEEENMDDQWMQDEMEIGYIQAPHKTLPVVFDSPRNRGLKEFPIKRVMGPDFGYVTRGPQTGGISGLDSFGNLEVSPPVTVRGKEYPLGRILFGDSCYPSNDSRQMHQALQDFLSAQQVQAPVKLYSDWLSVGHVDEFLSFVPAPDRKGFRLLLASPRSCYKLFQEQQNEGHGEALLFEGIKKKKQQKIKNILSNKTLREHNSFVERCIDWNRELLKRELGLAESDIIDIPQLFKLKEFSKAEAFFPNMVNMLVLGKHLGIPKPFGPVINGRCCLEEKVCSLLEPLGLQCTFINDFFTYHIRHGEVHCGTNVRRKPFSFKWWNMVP

Regarding “^ClAc-D-F-D-A-Ahep-Y-P-F-R-P-P-Ahep-A-H-C (Ac-[dF]DA[Ahp(2)]YPFRPP[Ahp(2)]AHC; bridge N-14; not fully specified (C-terminus, bridges); printed as ClAc-D-F-D-A-Ahep-Y-P-F-R-P-P-Ahep-A-H-C) [VB1C20]”, the “concentration necessary for incorporation in HeLa cells” value with HeLa cells is “at least 10 μM”. In the test with PAD4, the “PAD4 inhibition, dose dependence” value is recorded as “dose-dependently inhibit PAD4” and the “PAD4 inhibitory activity compared with the existing PAD4 inhibitor” value is “not stronger than that of the existing PAD4 inhibitor”.

On to “^ClAc-D-F-N-A-Ahep-Y-P-Y-R-P-P-Ahep-T-S-C ({CH2CO}-[dF]NA[Ahp(2)]YPYRPP[Ahp(2)]TSC-NH2; thioether N-14; SMILES CCCCC[C@@H]1NC(=O)[C@H](C)NC(=O)[C@H](CC(N)=O)NC(=O)[C@@H](Cc2ccccc2)NC(=O)CSC[C@@H](C(N)=O)NC(=O)[C@H](CO)NC(=O)[C@H]([C@@H](C)O)NC(=O)[C@H](CCCCC)NC(=O)[C@@H]2CCCN2C(=O)[C@@H]2CCCN2C(=O)[C@H](CCCNC(=N)N)NC(=O)[C@H](Cc2ccc(O)cc2)NC(=O)[C@@H]2CCCN2C(=O)[C@H](Cc2ccc(O)cc2)NC1=O) [VB1C12]”, for which, in the test with PAD4, the “PAD4 inhibition, dose dependence” value is “dose-dependently inhibit PAD4” and the “PAD4 inhibitory activity compared with the existing PAD4 inhibitor” value was “not stronger than that of the existing PAD4 inhibitor”.

Take “VB1C12-Cl-amidine analog: VB1C12 peptide with a haloacetamidine warhead introduced by modifying the Arg residue (ornithine δNH2 chloroacetamidine) (Ac-[dF]NA[Ahp(2)]YPY[Orn](chloroacetamidine)PP[Ahp(2)]TSC; bridge N-14; not fully specified (C-terminus, bridges))”: the “PAD4 inhibitory ability relative to Cl-amidine and VB1C12 peptide” value with PAD4 came out at 2.7 times.
